Test [1] has as its target T1, human TGFβ3 (human, UniProt P10600 301-412).
T1 sequence: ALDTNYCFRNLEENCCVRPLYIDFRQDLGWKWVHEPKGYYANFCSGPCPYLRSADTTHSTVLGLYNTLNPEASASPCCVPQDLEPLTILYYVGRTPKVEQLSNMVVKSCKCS
The test can be described thus: Biacore off-rate vs wt GC1008. The text has this: (§1) Plasmids encoding either the GC1008 heavy chain or light chain were used as a template in PCR-based mutagenesis reactions. Mutations to the encoding DNA were made to create 155 single amino acid substitutions of the encoded heavy chain amino acid sequence and one single amino acid substitution of the encoded light chain amino acid sequence. A QuikChange® Lightning Site-Directed Mutagenesis kit (Agilent Technologies, Santa Clara Calif.) was used according to the manufacturer's instructions to create DNA mutations using a set of forward and reverse primers, either designed for a specific amino acid or for all 20 amino acids with a degenerate codon (NNK). After sequencing confirmation, identified mutant DNA was paired with a wild-type light or heavy chain DNA for transfection into an Expi293F™ host cell suspension (Life Techonologies Corp., Grand Island, N.Y.). At 4 days post-transfection, conditioned media (1 mL) was harvested and purified using a 1 mL Protein A PhyTip® column (PhyNexus, Inc., San Jose, Calif.) and a PureSpeed™ 12-channel pipette (Rainin Instrument LLC, Oakland, Calif.). Purified variant antibody samples were analyzed in duplicate on a Biacore® 3000 (GE Healthcare) at 50 nM concentrations, using the 100 RU level TGFβ1, 2, and 3 immobilized surfaces. The off-rate (kd) of the variants was divided by the kd of the wild-type control to obtain the fold change in the kd. […] A heat map was generated to visualize the results. Variants that completely lost affinity for TGFβ were shown in red without numbers.
(Surface plasmon resonance follows binding to a sensor surface in real time, without labels.)

Test [2] deals with T2, human TGFβ2 (human, UniProt P61812 303-414).
T2 construct: also called TGFβ2 homodimer
T2 sequence: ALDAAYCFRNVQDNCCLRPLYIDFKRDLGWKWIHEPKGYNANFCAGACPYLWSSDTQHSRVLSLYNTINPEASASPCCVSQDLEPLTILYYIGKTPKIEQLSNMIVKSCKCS
The test can be described thus: Biacore off-rate vs wt GC1008.
From the text: as §1

The target in test [3] is T3, human TGFβ1 (human, UniProt P01137 279-390).
T3 construct: also called TGFβ1 homodimer
T3 sequence (P01137 279-390 limits assumed): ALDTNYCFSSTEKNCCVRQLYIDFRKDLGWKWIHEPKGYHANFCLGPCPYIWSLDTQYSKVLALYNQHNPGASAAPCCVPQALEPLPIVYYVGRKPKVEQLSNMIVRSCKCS
As to the kind of experiment: Biacore off-rate vs wt GC1008.
From the text: as §1

The target in test [4] is T1, human TGFβ3. The test can be described thus: Biacore, 3.33-90 nM, 1:1 global fit, vs wt GC1008. Here is the method:
(§2) In FIG. 6C, seventeen mutants were selected and scaled up to produce sufficient amount of purified protein for KD (equilibrium constant=kd/ka) analysis by Biacore. Multiple concentrations (90, 30, 10 and 3.33 nM) were used in duplicate on the 150 RU level TGFβ1, 2, and 3 immobilized surfaces. KD was calculated using global curve fitting analysis for a 1-to-1 Langmuir binding model. The experimental data from all four concentrations were used for calculation except for I54N and I54R mutants, where only the top 2 concentrations were used. The fold changes in KD were compared to the fold changes in kd (off rate) presented in FIG. 6B, and a heat map was generated for visualization. Similar fold changes were observed from the two data sets, confirming the validity of using kd as a parameter for screening of 155 single mutants as shown in FIG. 6B.

The target in test [5] is T2, human TGFβ2. As to the kind of experiment: Biacore, 3.33-90 nM, 1:1 global fit, vs wt GC1008. The method, then: as §2
For test [6], the target named is T3, human TGFβ1. The test can be described thus: Biacore, 3.33-90 nM, 1:1 global fit, vs wt GC1008. Here is the method:
as §2

The target of test [7] is T1, human TGFβ3. As to the kind of experiment: Biacore off-rate vs wt GC1008, 50 nM. The procedure, abridged: (§3)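 Surface plasmon resonance on a Biacore 3000 measured how fast purified antibody variants dissociated from TGFβ isoforms immobilized at about 100 RU. Variants carried single heavy- or light-chain substitutions and were produced by transient Expi293F transfection with Protein A cleanup. Samples at 50 nM were tested in duplicate, and each variant kd was divided by the wild-type control kd to give fold change.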

The target in test [8] is T2, human TGFβ2. The test can be described thus: Biacore off-rate vs wt GC1008, 50 nM. The procedure, abridged:
as §3

Test [9] has as its target T3, human TGFβ1. The test can be described thus: Biacore off-rate vs wt GC1008, 50 nM. The procedure, abridged:
as §3

B1: D56R (antibody, V domains shown)
VH: QVQLVQSGAEVKKPGSSVKVSCKASGYTFSSNVISWVRQAPGQGLEWMGGVIPIVRIANYAQRFKGRVTITADESTSTTYMELSSLRSEDTAVYYCASTLGLVLDAMDYWGQGTLVTVSS
VL: ETVLTQSPGTLSLSPGERATLSCRASQSLGSSYLAWYQQKPGQAPRLLIYGASSRAPGIPDRFSGSGSGTDFTLTISRLEPEDFAVYYCQQYADSPITFGQGTRLEIK
notes: GC1008 IgG4 variant
B1: the kd mutant/kd wt was found to be 0.7 with human TGFβ3 [1], 0.8 with human TGFβ2 [2] and 1 in the test with human TGFβ1 [3]. Also, the “KD mutant/KD wt” value with human TGFβ3 [4] turned out to be 0.6; in the test with human TGFβ2 [5] it was 0.6; with human TGFβ1 [6], 1. Also, the figures for the kd var/kd wt with human TGFβ3 [7], with human TGFβ2 [8] and with human TGFβ1 [9] were 0.7, 0.8 and 1, respectively.

B2: I52L (antibody, V domains shown)
VH: QVQLVQSGAEVKKPGSSVKVSCKASGYTFSSNVISWVRQAPGQGLEWMGGVLPIVDIANYAQRFKGRVTITADESTSTTYMELSSLRSEDTAVYYCASTLGLVLDAMDYWGQGTLVTVSS
VL: ETVLTQSPGTLSLSPGERATLSCRASQSLGSSYLAWYQQKPGQAPRLLIYGASSRAPGIPDRFSGSGSGTDFTLTISRLEPEDFAVYYCQQYADSPITFGQGTRLEIK
notes: GC1008 IgG4 variant
B2: the results for the kd mutant/kd wt with human TGFβ3 [1], in the test with human TGFβ2 [2] and in the test with human TGFβ1 [3] were 1.6, 1.4 and 3, respectively. The “KD mutant/KD wt” value in the test with human TGFβ3 [4] was determined as 2.6; in the test with human TGFβ2 [5] it was 2.4; with human TGFβ1 [6], 4.1. The kd var/kd wt was found to be 1.6 with human TGFβ3 [7], 1.4 with human TGFβ2 [8] and 3 with human TGFβ1 [9].

B3: I54W (antibody, V domains shown)
VH: QVQLVQSGAEVKKPGSSVKVSCKASGYTFSSNVISWVRQAPGQGLEWMGGVIPWVDIANYAQRFKGRVTITADESTSTTYMELSSLRSEDTAVYYCASTLGLVLDAMDYWGQGTLVTVSS
VL: ETVLTQSPGTLSLSPGERATLSCRASQSLGSSYLAWYQQKPGQAPRLLIYGASSRAPGIPDRFSGSGSGTDFTLTISRLEPEDFAVYYCQQYADSPITFGQGTRLEIK
notes: GC1008 IgG4 variant
Turning to B3, the kd mutant/kd wt in the test with human TGFβ3 [1] was 1.7; with human TGFβ2 [2] it was 1.2; with human TGFβ1 [3] it was 2. Also, the “KD mutant/KD wt” value came to 3.1 with human TGFβ3 [4], 1.4 with human TGFβ2 [5] and 1.7 with human TGFβ1 [6]. For the same molecule, the kd var/kd wt worked out at 1.7 with human TGFβ3 [7], 1.2 with human TGFβ2 [8] and 2 with human TGFβ1 [9].

B4: I54T (antibody, V domains shown)
VH: QVQLVQSGAEVKKPGSSVKVSCKASGYTFSSNVISWVRQAPGQGLEWMGGVIPTVDIANYAQRFKGRVTITADESTSTTYMELSSLRSEDTAVYYCASTLGLVLDAMDYWGQGTLVTVSS
VL: ETVLTQSPGTLSLSPGERATLSCRASQSLGSSYLAWYQQKPGQAPRLLIYGASSRAPGIPDRFSGSGSGTDFTLTISRLEPEDFAVYYCQQYADSPITFGQGTRLEIK
notes: GC1008 IgG4 variant
Take B4: the kd mutant/kd wt in the test with human TGFβ3 [1] was 1.7; in the test with human TGFβ2 [2], 1.3; with human TGFβ1 [3], 2.1. The “KD mutant/KD wt” value amounted to 3.2 in the test with human TGFβ3 [4], 2.1 in the test with human TGFβ2 [5] and 2.1 with human TGFβ1 [6]. Also, the kd var/kd wt is 1.7 with human TGFβ3 [7], 1.3 with human TGFβ2 [8] and 2.1 with human TGFβ1 [9].

B5: E74R (antibody, V domains shown)
VH: QVQLVQSGAEVKKPGSSVKVSCKASGYTFSSNVISWVRQAPGQGLEWMGGVIPIVDIANYAQRFKGRVTITADRSTSTTYMELSSLRSEDTAVYYCASTLGLVLDAMDYWGQGTLVTVSS
VL: ETVLTQSPGTLSLSPGERATLSCRASQSLGSSYLAWYQQKPGQAPRLLIYGASSRAPGIPDRFSGSGSGTDFTLTISRLEPEDFAVYYCQQYADSPITFGQGTRLEIK
notes: GC1008 IgG4 variant
Regarding B5, the values for the kd mutant/kd wt with human TGFβ3 [1], with human TGFβ2 [2] and in the test with human TGFβ1 [3] were 0.7, 1 and 2, respectively. Besides, the “KD mutant/KD wt” value with human TGFβ3 [4] amounted to 0.8; with human TGFβ2 [5], 1.3; with human TGFβ1 [6], 2.1. The kd var/kd wt was 0.7 with human TGFβ3 [7], 1 in the test with human TGFβ2 [8] and 2 with human TGFβ1 [9].

B6: E74W (antibody, V domains shown)
VH: QVQLVQSGAEVKKPGSSVKVSCKASGYTFSSNVISWVRQAPGQGLEWMGGVIPIVDIANYAQRFKGRVTITADWSTSTTYMELSSLRSEDTAVYYCASTLGLVLDAMDYWGQGTLVTVSS
VL: ETVLTQSPGTLSLSPGERATLSCRASQSLGSSYLAWYQQKPGQAPRLLIYGASSRAPGIPDRFSGSGSGTDFTLTISRLEPEDFAVYYCQQYADSPITFGQGTRLEIK
notes: GC1008 IgG4 variant
Turning to B6, the kd mutant/kd wt with human TGFβ3 [1] is 0.3; with human TGFβ2 [2], 0.3; in the test with human TGFβ1 [3] it was 0.8. Also, the “KD mutant/KD wt” value in the test with human TGFβ3 [4] turned out to be 0.6; in the test with human TGFβ2 [5], 0.5; with human TGFβ1 [6], 0.9. Further, the kd var/kd wt with human TGFβ3 [7] was determined as 0.3; with human TGFβ2 [8] it was 0.3; with human TGFβ1 [9], 0.8.

B7: I54F (antibody, V domains shown)
VH: QVQLVQSGAEVKKPGSSVKVSCKASGYTFSSNVISWVRQAPGQGLEWMGGVIPFVDIANYAQRFKGRVTITADESTSTTYMELSSLRSEDTAVYYCASTLGLVLDAMDYWGQGTLVTVSS
VL: ETVLTQSPGTLSLSPGERATLSCRASQSLGSSYLAWYQQKPGQAPRLLIYGASSRAPGIPDRFSGSGSGTDFTLTISRLEPEDFAVYYCQQYADSPITFGQGTRLEIK
notes: GC1008 IgG4 variant
B7: the kd mutant/kd wt in the test with human TGFβ3 [1] was determined as 1.2; in the test with human TGFβ2 [2], 0.7; with human TGFβ1 [3], 1.3. Also, the figures for the “KD mutant/KD wt” value with human TGFβ3 [4], with human TGFβ2 [5] and with human TGFβ1 [6] were 1.2, 0.6 and 1.3, respectively. Also, the figures for the kd var/kd wt with human TGFβ3 [7], with human TGFβ2 [8] and with human TGFβ1 [9] were 1.2, 0.7 and 1.3, respectively.

B8: E74L (antibody, V domains shown)
VH: QVQLVQSGAEVKKPGSSVKVSCKASGYTFSSNVISWVRQAPGQGLEWMGGVIPIVDIANYAQRFKGRVTITADLSTSTTYMELSSLRSEDTAVYYCASTLGLVLDAMDYWGQGTLVTVSS
VL: ETVLTQSPGTLSLSPGERATLSCRASQSLGSSYLAWYQQKPGQAPRLLIYGASSRAPGIPDRFSGSGSGTDFTLTISRLEPEDFAVYYCQQYADSPITFGQGTRLEIK
notes: GC1008 IgG4 variant
B8: the values for the kd mutant/kd wt with human TGFβ3 [1], with human TGFβ2 [2] and with human TGFβ1 [3] were 0.1, 0.6 and 0.8, respectively. Further, the figures for the “KD mutant/KD wt” value with human TGFβ3 [4], with human TGFβ2 [5] and in the test with human TGFβ1 [6] were 0.3, 0.7 and 0.9, respectively. For the same molecule, the kd var/kd wt in the test with human TGFβ3 [7] worked out at 0.1; with human TGFβ2 [8] it was 0.6; with human TGFβ1 [9] it was 0.8.

These data come from patent US20170342144A1 (Sanofi, published 2017).
